These results are taken from patent US20180002444A1 (ROCKEFELLER UNIVERSITY, published 2018).

Assay [1] deals with T1, recombinant human MERTK (human, UniProt Q12866 26-499, limits assumed).
T1 construct: Analyte in solution in biolayer interferometry; also called hMer
T1 sequence: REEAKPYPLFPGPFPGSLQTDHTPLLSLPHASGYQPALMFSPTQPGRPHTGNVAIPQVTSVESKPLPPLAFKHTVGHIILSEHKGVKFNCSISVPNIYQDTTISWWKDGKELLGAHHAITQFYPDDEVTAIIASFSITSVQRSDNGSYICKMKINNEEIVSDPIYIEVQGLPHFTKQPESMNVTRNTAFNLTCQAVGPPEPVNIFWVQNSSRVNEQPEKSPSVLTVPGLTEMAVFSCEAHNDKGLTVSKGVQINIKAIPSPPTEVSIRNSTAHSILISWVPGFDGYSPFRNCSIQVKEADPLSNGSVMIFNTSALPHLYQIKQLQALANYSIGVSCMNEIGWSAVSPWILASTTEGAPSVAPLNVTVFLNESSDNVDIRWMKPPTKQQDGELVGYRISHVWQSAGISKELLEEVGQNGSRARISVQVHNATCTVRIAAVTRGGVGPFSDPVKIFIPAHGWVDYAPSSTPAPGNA
Kind of assay: biolayer interferometry, M6 loaded on AMQ sensor, hMer as analyte, 1:1 model, local fit at 1.25 nM hMer. The protocol: FIG. 11: M6 binds to MERTK with high affinity. M6 binds to human MERTK with high affinity. A diagram showing antibody binding kinetics for M6 (Mer-M6) against human MERTK (hMer) using biolayer interferometry. Purified M6 was loaded on an AMQ sensor at a concentration of 1 microgram/mL to test binding against analytes in solution. All analytes were prepared at 5 nM with a 2-fold dilution series for a total of 7 concentrations. Kinetic fits were calculated using a 1:1 model, with Local fits for each concentration as well as an overall Global fit.
(In general: Biolayer interferometry detects binding as a change in optical thickness at a sensor tip.)

Assay [2] has as its target T1, recombinant human MERTK. Kind of assay: biolayer interferometry, M19 loaded on AMQ sensor, hMer as analyte, 1:1 model, local fit at 5 nM hMer. The protocol: FIG. 7: M19 binds to human MERTK with high affinity. A diagram showing antibody binding kinetics for M19 (Mer-M19) against human MERTK (hMer) using biolayer interferometry. Purified M19 was loaded on an AMQ sensor at a concentration of 1 microgram/mL to test binding against analytes in solution. All analytes were prepared at 5 nM with a 2-fold dilution series for a total of 7 concentrations. Kinetic fits were calculated using a 1:1 model, with Local fits for each concentration as well as an overall global fit.

B1: antibody M6 (antibody, V domains shown)
VH: QVKLEESGPELKKPGETVKISCKASGYTFTNYGMNWVKQAPGKGLKWMGWINTYTGEPTYADDFKGRFVFSLETSASTAYLQINNLKNEDMATYFCARKSTVVSRYFDVWGAGTTVTVSS
VL: DIVLTQTHKFMSTSVGDRVSITCKASQDVGDAVTWCQQKPGQPPKLLIYWASTRHTGVPDRFTGSGSGTDFTLTINNVQSEDLADYFCQQYRSYPLTFGAGTKLELKR
notes: mouse hybridoma monoclonal antibody; also called Mer-M6
B1: in assay [1], the Kd turned out to be 0.048 nM and the koff was determined as 0.00015 s⁻¹.

B2: antibody M19 (antibody, V domains shown)
VH: EVQLEESGPDLKKPGETVKISCKASNYTFTDYSMHWVKQAPGKGLKWVGWINTDTGEPTYADDFKGRFAFSLETSASTAYLQINNLKNEDTATYFCARWFGAMDYWGQGTSVTVSS
VL: DIVITQSHKFMSTSVGDRVSITCKASQDVTNVVAWYQQKPGQSPKLLIYSASYRYTGVPDRFTGSGSGTDFTFTISSVQAEDLAVYYCQQYYRTPRTFGGGTKLEIKR
notes: mouse hybridoma monoclonal antibody; also called Mer-M19
As for B2, in assay [2], the Kd amounted to 0.248 nM and the kon was 3.83e+06 M⁻¹ s⁻¹.

Usually Kd stands for the equilibrium constant for the complex coming apart. As usually defined, the koff is the rate constant with which the complex falls apart. Broadly, the kon is a measure of how fast the partners come together.
